Patent publication US20260015421A1

Molecular target: CD19 on CD19+ cells (Raji, Nalm6) (human) (UniProt P15391)
Assay: cell-based or functional assay

Chain of UniProt P15391 (P15391 20-556): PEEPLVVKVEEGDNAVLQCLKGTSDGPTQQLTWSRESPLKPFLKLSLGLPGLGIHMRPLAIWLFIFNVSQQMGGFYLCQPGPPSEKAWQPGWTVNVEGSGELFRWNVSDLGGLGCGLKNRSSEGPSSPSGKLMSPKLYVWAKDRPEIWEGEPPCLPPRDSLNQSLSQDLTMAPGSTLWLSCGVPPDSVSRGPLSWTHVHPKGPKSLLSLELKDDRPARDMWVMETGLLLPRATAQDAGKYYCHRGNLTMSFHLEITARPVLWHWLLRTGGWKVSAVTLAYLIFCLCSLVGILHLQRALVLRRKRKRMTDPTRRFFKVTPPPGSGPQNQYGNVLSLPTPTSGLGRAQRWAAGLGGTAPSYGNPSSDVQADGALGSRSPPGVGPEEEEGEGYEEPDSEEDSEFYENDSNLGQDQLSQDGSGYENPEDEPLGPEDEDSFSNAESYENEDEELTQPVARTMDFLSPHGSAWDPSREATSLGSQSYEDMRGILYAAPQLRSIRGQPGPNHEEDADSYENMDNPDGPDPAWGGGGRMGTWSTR

non-signaling CD19 CAR FMC63-CD8h-CD28TMCo-noZ (IL15 co-expressed), on γδ T cells (from UniProt P01732 138-182; P10747 153-220)
cytotoxicity against CD19+ Nalm6 ALL cells (7-AAD/CFSE flow cytometry, E:T=0.25-4.0) (fold over non-transduced control): 1.5
